Laboratory results from patent publication US20030206905A1.
pKd: −log10 of the molar value.

Target: 161P2F10b (UniProt O14638)
Assay: saturation binding ELISA; relative affinity

## 97A6(CD203c)
  pKd: 9.55
